What was measured:
STK19 (31-254) [1] = molecular target: T1, STK19 (31-254) (human, UniProt P49842 31-254); test: EMSA; n = 4; 20 mM HEPES pH 7.4, 100 mM NaCl, 1 mM MgCl2, 1 mg/ml BSA, 2 mM DTT, 5% glycerol; 30 min on ice; native 5% PAGE in 1X TBE; conditions: protein: recombinant, tags: GST cleaved, GPLGS left at N-terminus
STK19 (31-254) [2] = molecular target: T1, STK19 (31-254); test: EMSA; n = 2; 20 mM HEPES pH 7.4, 100 mM NaCl, 1 mM MgCl2, 1 mg/ml BSA, 2 mM DTT, 5% glycerol; 30 min on ice; native 5% PAGE in 1X TBE; conditions: protein: recombinant; tags: GST cleaved; GPLGS left at N-terminus; label: 5' IRDye 700 on rU30; blunt

T1 sequence (P49842 31-254): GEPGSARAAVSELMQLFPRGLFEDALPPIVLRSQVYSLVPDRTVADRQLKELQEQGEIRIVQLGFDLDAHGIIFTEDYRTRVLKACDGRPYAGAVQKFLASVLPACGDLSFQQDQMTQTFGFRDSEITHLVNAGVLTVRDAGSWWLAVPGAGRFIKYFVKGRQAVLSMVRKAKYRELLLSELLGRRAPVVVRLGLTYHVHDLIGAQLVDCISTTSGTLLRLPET

B1: dsDNA 30-mer (dT-dA)30 (dsDNA)
DNA 1: TTTTTTTTTTTTTTTTTTTTTTTTTTTTTT
DNA 2: AAAAAAAAAAAAAAAAAAAAAAAAAAAAAA
Kd (STK19 (31-254) [1]; label: 5' IRDye 700 on dT30, blunt): 2.2 µM

TTTTTTTTTTTTTTTTTTTTTTTTTTTTTT (ssDNA) [ssDNA dT30]
Kd (STK19 (31-254) [1]; label: 5' IRDye 700): 14.1 µM

B2: dsRNA 30-mer (rU-rA)30 (dsRNA)
RNA 1: UUUUUUUUUUUUUUUUUUUUUUUUUUUUUU
RNA 2: B1 DNA 2
Kd (STK19 (31-254) [2]): 3.2 µM

— publication PMC11189558, “Mutations found in cancer patients compromise DNA binding of the winged helix protein STK19”
